B1: 6NMW (parent)
chain: QGDIVVALYPYDGIHPDDLSFKKGEKMKVLEEHGEWWKAKSLLTKKEGFIPSNYVAKLN

Variants of: B1
Assay: folding stability dG (cDNA display proteolysis); higher = more stable
Details: PBS, room temperature
For L42P, the “folding stability dG” value was -0.897 kcal/mol. In the case of V29K, the “folding stability dG” value is reported as 1.25 kcal/mol. For D17C, the “folding stability dG” value was 4.33 kcal/mol. For H33K, the “folding stability dG” value was 3.38 kcal/mol. With V29C the “folding stability dG” value was 1.16 kcal/mol. With G48F the “folding stability dG” value was 0.034 kcal/mol. In the case of D18P, the “folding stability dG” value is reported as 0.221 kcal/mol. In the case of K26C, the “folding stability dG” value is reported as 4.34 kcal/mol. For E35S, the “folding stability dG” value was 3.82 kcal/mol. With Q1E the “folding stability dG” value was 3.97 kcal/mol. With K22R the “folding stability dG” value was 3.65 kcal/mol. For K38S, the “folding stability dG” value was 1.83 kcal/mol. For E47G, the “folding stability dG” value was 1.26 kcal/mol. With V5Y the “folding stability dG” value was 4.22 kcal/mol. With W37F the “folding stability dG” value was 4.79 kcal/mol. For L42R, the “folding stability dG” value was 0.165 kcal/mol. With L43W the “folding stability dG” value was 4.56 kcal/mol. In the case of N53C, the “folding stability dG” value is reported as 4.41 kcal/mol. With F49W the “folding stability dG” value was 4.88 kcal/mol. In the case of D12F, the “folding stability dG” value is reported as 3.95 kcal/mol. With K57G the “folding stability dG” value was 2.27 kcal/mol. For Y9K, the “folding stability dG” value was 3.61 kcal/mol. With D3G the “folding stability dG” value was 3.47 kcal/mol. In the case of D3T, the “folding stability dG” value is reported as 4.52 kcal/mol. In the case of D3C, the “folding stability dG” value is reported as 4.72 kcal/mol. In the case of G34T, the “folding stability dG” value is reported as 1.48 kcal/mol. With I14F the “folding stability dG” value was 2.99 kcal/mol. In the case of T44L, the “folding stability dG” value is reported as 0.417 kcal/mol. For Q1H, the “folding stability dG” value was 3.79 kcal/mol. For S20H, the “folding stability dG” value was 2.03 kcal/mol. In the case of K46R, the “folding stability dG” value is reported as 3.66 kcal/mol. In the case of G13R, the “folding stability dG” value is reported as 2.26 kcal/mol. In the case of K26Y, the “folding stability dG” value is reported as 4.84 kcal/mol. In the case of Y9Q, the “folding stability dG” value is reported as 3.15 kcal/mol. In the case of K46Y, the “folding stability dG” value is reported as 2.02 kcal/mol. With E47M the “folding stability dG” value was 3.2 kcal/mol. With E47R the “folding stability dG” value was 2.28 kcal/mol. With W36P the “folding stability dG” value was 1.14 kcal/mol. With G48N the “folding stability dG” value was -0.967 kcal/mol. With Y9T the “folding stability dG” value was 1.87 kcal/mol. For H33P, the “folding stability dG” value was 1.43 kcal/mol. In the case of L42G, the “folding stability dG” value is reported as -0.156 kcal/mol. With I14E the “folding stability dG” value was 2.98 kcal/mol. In the case of L8S, the “folding stability dG” value is reported as 0.987 kcal/mol. In the case of K38E, the “folding stability dG” value is reported as 1.49 kcal/mol. In the case of I50P, the “folding stability dG” value is reported as -0.401 kcal/mol. In the case of P16L, the “folding stability dG” value is reported as 2.7 kcal/mol. In the case of W37E, the “folding stability dG” value is reported as -0.118 kcal/mol. In the case of L58A, the “folding stability dG” value is reported as 2.62 kcal/mol. With L43K the “folding stability dG” value was 3.17 kcal/mol. With P16H the “folding stability dG” value was 2.92 kcal/mol. With F21I the “folding stability dG” value was 0.968 kcal/mol. With L43Y the “folding stability dG” value was 3.26 kcal/mol. With W37S the “folding stability dG” value was 2.26 kcal/mol. In the case of K57E, the “folding stability dG” value is reported as 2.02 kcal/mol. In the case of S41I, the “folding stability dG” value is reported as 1.28 kcal/mol. For P10G, the “folding stability dG” value was 3.56 kcal/mol. For M27Y, the “folding stability dG” value was -0.162 kcal/mol. In the case of S52C, the “folding stability dG” value is reported as 3.84 kcal/mol. With K28A the “folding stability dG” value was 3.21 kcal/mol. For V6A, the “folding stability dG” value was 1.29 kcal/mol. In the case of G2N, the “folding stability dG” value is reported as 3.5 kcal/mol. With I4N the “folding stability dG” value was 0.755 kcal/mol. With I14C the “folding stability dG” value was 4.14 kcal/mol. In the case of E32F, the “folding stability dG” value is reported as 4.1 kcal/mol. For Y11Q, the “folding stability dG” value was -0.356 kcal/mol. In the case of E25T, the “folding stability dG” value is reported as 0.615 kcal/mol. With M27F the “folding stability dG” value was 3.72 kcal/mol. With E35I the “folding stability dG” value was 3.97 kcal/mol. In the case of D17W, the “folding stability dG” value is reported as 4.86 kcal/mol. With V6R the “folding stability dG” value was 1.9 kcal/mol. In the case of I4C, the “folding stability dG” value is reported as 2.58 kcal/mol. With L8V the “folding stability dG” value was 2.29 kcal/mol. In the case of I14L, the “folding stability dG” value is reported as 3.51 kcal/mol. With V5Q the “folding stability dG” value was -0.613 kcal/mol. For Y54V, the “folding stability dG” value was 1.29 kcal/mol. For V55I, the “folding stability dG” value was 2.12 kcal/mol. With L30M the “folding stability dG” value was 2.85 kcal/mol. With A56H the “folding stability dG” value was 3.07 kcal/mol. For I4E, the “folding stability dG” value was 1.53 kcal/mol. For V29L, the “folding stability dG” value was 4.64 kcal/mol. With G2S the “folding stability dG” value was 3.54 kcal/mol. With K22S the “folding stability dG” value was 3.08 kcal/mol. With D3I the “folding stability dG” value was 4.5 kcal/mol. With K26H the “folding stability dG” value was 4.3 kcal/mol. In the case of V55K, the “folding stability dG” value is reported as 0.066 kcal/mol. In the case of N59G, the “folding stability dG” value is reported as 4.04 kcal/mol. With I4V the “folding stability dG” value was 3.08 kcal/mol. For L43P, the “folding stability dG” value was 0.475 kcal/mol. In the case of G2M, the “folding stability dG” value is reported as 3.38 kcal/mol. For P51G, the “folding stability dG” value was 0.115 kcal/mol. With L58K the “folding stability dG” value was 1.65 kcal/mol. For K26T, the “folding stability dG” value was 3.12 kcal/mol. In the case of G2K, the “folding stability dG” value is reported as 2.9 kcal/mol. For V6K, the “folding stability dG” value was 1.52 kcal/mol. With V6H the “folding stability dG” value was 1.5 kcal/mol. In the case of S20N, the “folding stability dG” value is reported as 2.01 kcal/mol. In the case of D12V, the “folding stability dG” value is reported as 4.41 kcal/mol. For Y54H, the “folding stability dG” value was 2.9 kcal/mol. In the case of H15V, the “folding stability dG” value is reported as 1.77 kcal/mol. In the case of L8R, the “folding stability dG” value is reported as 1.94 kcal/mol. For P16D, the “folding stability dG” value was 3.22 kcal/mol. With L42E the “folding stability dG” value was 1.82 kcal/mol. In the case of L19F, the “folding stability dG” value is reported as 1.02 kcal/mol. For K26S, the “folding stability dG” value was 2.3 kcal/mol. For T44D, the “folding stability dG” value was 1.14 kcal/mol. With I4H the “folding stability dG” value was 1.74 kcal/mol. For F49Q, the “folding stability dG” value was 2.25 kcal/mol. In the case of Y54K, the “folding stability dG” value is reported as 2.44 kcal/mol. In the case of H33F, the “folding stability dG” value is reported as 3.74 kcal/mol. In the case of T44Y, the “folding stability dG” value is reported as 0.599 kcal/mol. With G2C the “folding stability dG” value was 4.54 kcal/mol. In the case of I14D, the “folding stability dG” value is reported as 2.68 kcal/mol. For S52G, the “folding stability dG” value was 2.51 kcal/mol. With P51C the “folding stability dG” value was 2.34 kcal/mol. For S20R, the “folding stability dG” value was 2.23 kcal/mol. In the case of W36Y, the “folding stability dG” value is reported as 3.49 kcal/mol. For E47K, the “folding stability dG” value was 2.55 kcal/mol. In the case of K57H, the “folding stability dG” value is reported as 3.25 kcal/mol. In the case of L58M, the “folding stability dG” value is reported as 3.45 kcal/mol. For K38V, the “folding stability dG” value was 3.34 kcal/mol. In the case of V55G, the “folding stability dG” value is reported as 0.112 kcal/mol. In the case of F21L, the “folding stability dG” value is reported as -0.236 kcal/mol. For S20M, the “folding stability dG” value was 1.88 kcal/mol. With P16Y the “folding stability dG” value was 2.59 kcal/mol. With K46A the “folding stability dG” value was 3.05 kcal/mol. For K28M, the “folding stability dG” value was 4.6 kcal/mol. In the case of N53S, the “folding stability dG” value is reported as 4.5 kcal/mol. With H33T the “folding stability dG” value was 3.12 kcal/mol. In the case of P51I, the “folding stability dG” value is reported as 0.759 kcal/mol. In the case of V55E, the “folding stability dG” value is reported as -0.519 kcal/mol. With G2Q the “folding stability dG” value was 3.21 kcal/mol. For P16T, the “folding stability dG” value was 2.87 kcal/mol. With H33M the “folding stability dG” value was 3.29 kcal/mol. In the case of K40A, the “folding stability dG” value is reported as 3 kcal/mol. In the case of V6W, the “folding stability dG” value is reported as 2.05 kcal/mol. In the case of I4D, the “folding stability dG” value is reported as 1.12 kcal/mol. With L30G the “folding stability dG” value was 0.263 kcal/mol. For G24R, the “folding stability dG” value was 0.941 kcal/mol. For K57A, the “folding stability dG” value was 3.02 kcal/mol. With A56I the “folding stability dG” value was 4.4 kcal/mol. In the case of P16V, the “folding stability dG” value is reported as 3.11 kcal/mol. In the case of W36N, the “folding stability dG” value is reported as 2.13 kcal/mol. For L8G, the “folding stability dG” value was 0.062 kcal/mol. In the case of H15F, the “folding stability dG” value is reported as 3.5 kcal/mol. For Y54A, the “folding stability dG” value was 2.58 kcal/mol. In the case of L42H, the “folding stability dG” value is reported as 1.02 kcal/mol. With P10V the “folding stability dG” value was 2.27 kcal/mol. In the case of L30C, the “folding stability dG” value is reported as 2.42 kcal/mol. For H33D, the “folding stability dG” value was 2.75 kcal/mol. In the case of E35L, the “folding stability dG” value is reported as 4.23 kcal/mol. With A56G the “folding stability dG” value was 2.51 kcal/mol. With L58T the “folding stability dG” value was 2.86 kcal/mol. For L30A, the “folding stability dG” value was 1.01 kcal/mol. In the case of E25F, the “folding stability dG” value is reported as -0.064 kcal/mol. With D3R the “folding stability dG” value was 4.02 kcal/mol. For V55A, the “folding stability dG” value was 1.47 kcal/mol. In the case of T44C, the “folding stability dG” value is reported as 0.909 kcal/mol. In the case of S20V, the “folding stability dG” value is reported as 2.33 kcal/mol. For Q1L, the “folding stability dG” value was 4.29 kcal/mol. For I4T, the “folding stability dG” value was 2.35 kcal/mol. For K38P, the “folding stability dG” value was 0.337 kcal/mol. In the case of V5M, the “folding stability dG” value is reported as 1.65 kcal/mol. For D18L, the “folding stability dG” value was 2.84 kcal/mol. In the case of D3P, the “folding stability dG” value is reported as 3.09 kcal/mol. In the case of N59S, the “folding stability dG” value is reported as 4.06 kcal/mol. For P51W, the “folding stability dG” value was 1.33 kcal/mol.
